Measurements as given in patent US20240197872A1.

Target: CD20 on CD20-positive human lymphoma cell lines Raji and Daudi (human) (UniProt P11836)
Assay: cell-based or functional assay

Sequence of UniProt P11836 (P11836 whole entry): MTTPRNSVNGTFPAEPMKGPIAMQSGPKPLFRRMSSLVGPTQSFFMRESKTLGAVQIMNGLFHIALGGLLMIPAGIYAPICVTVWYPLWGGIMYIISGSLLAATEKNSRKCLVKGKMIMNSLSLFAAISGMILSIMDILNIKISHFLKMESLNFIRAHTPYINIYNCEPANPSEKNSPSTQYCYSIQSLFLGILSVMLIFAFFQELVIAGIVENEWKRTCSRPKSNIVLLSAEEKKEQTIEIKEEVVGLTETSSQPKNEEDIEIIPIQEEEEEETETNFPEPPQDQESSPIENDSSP

percentage of lysed target cells, Daudi, E:T 2:1 (Ctrl-gdT cells without rituximab: 19.68%): 41.2% | percentage of lysed target cells, Daudi, E:T 10:1 (Ctrl-gdT cells without rituximab: 43.66%): 71.2% | percentage of lysed target cells, Raji, E:T 10:1 (Ctrl-gdT cells without rituximab: 43.13%): 69.4%
Substance: rituximab (commercially available anti-CD20 antibody, Rituxan), conjugated to an ssDNA linker and hybridised to the surface of gdT cells (ACE-gdT-CD20 cells)
